Test [1] has as its target T1, Recombinant human ERα (human, UniProt P03372 1-595).
T1 construct: recombinant human ERα, bought; also called recombinant hERα; source: bought: Life Technologies
T1 sequence (looked up): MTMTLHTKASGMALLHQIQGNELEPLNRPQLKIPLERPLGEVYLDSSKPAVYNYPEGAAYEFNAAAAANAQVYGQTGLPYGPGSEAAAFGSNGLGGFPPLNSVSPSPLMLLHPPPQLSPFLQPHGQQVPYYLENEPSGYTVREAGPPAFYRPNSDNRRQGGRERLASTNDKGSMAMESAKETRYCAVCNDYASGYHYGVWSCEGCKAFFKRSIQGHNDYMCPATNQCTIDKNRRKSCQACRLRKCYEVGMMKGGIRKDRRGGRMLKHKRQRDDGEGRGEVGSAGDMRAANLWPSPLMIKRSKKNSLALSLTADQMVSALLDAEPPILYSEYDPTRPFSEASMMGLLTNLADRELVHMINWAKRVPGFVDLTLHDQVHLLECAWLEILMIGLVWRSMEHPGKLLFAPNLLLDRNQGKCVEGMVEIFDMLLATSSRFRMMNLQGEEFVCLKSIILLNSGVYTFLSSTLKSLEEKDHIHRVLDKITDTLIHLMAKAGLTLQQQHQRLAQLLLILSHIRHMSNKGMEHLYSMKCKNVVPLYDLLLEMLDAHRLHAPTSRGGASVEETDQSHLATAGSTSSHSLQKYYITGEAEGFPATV

Test [2] concerns the target T1, Recombinant human ERα. Description: pull-down; competition screening: MBP-Tab2(406–531) and recombinant hERα (1 nM) with or without in vitro translated fragments of Tab2(406–531); the pair that is blocked. The conditions noted are these: both partners purified.
In test [3] the target is T1, Recombinant human ERα. Description: pull-down; competition: 10 μg MBP-Tab2(406–531) preincubated 1 h at 4°C with synthetic Tab2 peptides (10 μM each, or Tab2-pept3 100 nM to 10 μM), then recombinant hERα (1 nM) 1.5 h at 4°C, amylose resin, immunoblot. Particulars: both partners purified.

Consider “TAT-Tab2-pept3 (from UniProt Q9NYJ8 480-496) (peptide)”, for which, in the test with Recombinant human ERα [1], the proliferation (bromo-deoxyuridine incorporation) of MCF7 TamR cells in 1 μM 4OHT, peptide 1 to 100 μM, 24 h; the peptide is meant to interfere with Tab2/ERα was in the range of 50 to 70 µM.

B1: MBP-Tab2(406–531) (domain or fragment, human, UniProt Q9NYJ8 406-531, looked up)
chain: TLFISTNSGASAASRNMSGQVSMGPAFIHHHPPKSRAIGNNSATSPRVVVTQPNTKYTFKITVSPNKPPAVSPGVVSPTFELTNLLNHPDHYVETENIQHLTDPTLAHVDRISETRKLSMGSDDAA
notes: human Tab2, aa 406–531 (central domain); also called MBP-406-531Tab2; 406-531Tab2; source: bacteria, purified MBP fusion (pMALc2)
As to B1, the binding result with Recombinant human ERα [2] was “binds”.

B2: Tab2-pept3 (peptide, UniProt Q9NYJ8 480-496, looked up)
peptide: VVSPTFELTNLLNHPDH
notes: 17-aa synthetic peptide mimicking aa; 480–496 of human Tab2, a portion of Fragment 4; includes the LTNLL motif; also called Tab2 mimic peptide; SRID peptide; source: synthetic peptide (microwave-assisted synthesis, RP-HPLC purified)
As for B2, the binding result in the test with Recombinant human ERα [3] is “binds”.

The values are drawn from PMC5167418, “A Novel Functional Domain of Tab2 Involved in the Interaction with Estrogen Receptor Alpha in Breast Cancer Cells” (PLoS ONE, 2016).
